The source of these data is paper PMC7083938 (2020).

For one test, the target named is T1, Robo1 FN1 mouse (Mus musculus (Mouse), UniProt O89026).
T1 chain: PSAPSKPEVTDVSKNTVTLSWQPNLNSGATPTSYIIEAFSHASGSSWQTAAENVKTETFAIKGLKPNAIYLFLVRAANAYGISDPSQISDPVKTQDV
The experiment in a line: SPR equilibrium.

The target of the next test is T2, Robo3 FN1 mouse (Mus musculus (Mouse), UniProt Q9Z2I4).
T2 chain: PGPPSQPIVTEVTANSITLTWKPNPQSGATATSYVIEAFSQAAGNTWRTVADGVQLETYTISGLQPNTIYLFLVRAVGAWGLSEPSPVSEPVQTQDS
Kind of test: SPR equilibrium.

B1: NELL2 mouse (protein)
chain: DIDECAEGRHYCRENTMCVNTPGSFMCICKTGYIRIDDYSCTEHDECLTNQHNCDENALCFNTVGGHNCVCKPGYTGNGTTCK
The Kd is the equilibrium constant for the complex coming apart. Take B1: the results for the Kd with Robo1 FN1 mouse and in the test with Robo3 FN1 mouse were 13.8 µM and 0.71 µM, respectively.
